Columns and labels:
[1] = molecular target: RBD (SARS-CoV-2, UniProt P0DTC2 319-591); experiment: ELISA and biolayer interferometry (BLI)
[2] = molecular target: T1, NTD (UniProt P0DTC2 14-303); experiment: ELISA and biolayer interferometry (BLI)
T1 construct: domain: NTD; also called N-terminal domain

B1: antibody SC45 (antibody, V domains shown)
VH: QVQLQESGPGLVKSSETLSLTCTVSGGSISSYYWSWIRQPPGKGLEWIGCIYSSGSTNYNPSLKSRVTISVDSSKNQFSLRLNSVTAADTAVYYCARHKGTDFWSGYSFTPRGGWFDPWGQGALVSVSS
VL: DIQMTQSPSSLSASVGDRVTITCRASQSISSYLNWYQQKPGKAPKLLIYGASNLQSGVPSRFSGSGSETDFTLTISSLQPEDFASYYCQQSHSIPVTFGQGTKLEIK
[1]
  binding result: no binding
[2]
  binding result: no binding
